Earlier results on 1 substance are cited in article PMC2662774.

Series [1] deals with CXCR4 sY21 P38 peptide 1-38 (Homo sapiens) (UniProt P61073). In words: NMR titration.
Series [2] has as its target CXCR4 1-38 (sY21 P38) 1-38 (Homo sapiens) (UniProt P61073). In words: NMR.

SDF-1α, sequence (P48061 24-88): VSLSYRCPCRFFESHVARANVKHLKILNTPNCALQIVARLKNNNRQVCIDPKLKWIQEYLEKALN

Take SDF-1α (from UniProt P48061): the Kd in series [1] and in series [2] was 1300 nM throughout.
